Laboratory results published in article PMC6925387 (Life Science Alliance, 2019).

T1: Hendra virus attachment glycoprotein (HeV-G), HA-tagged, expressed on the cell surface (Hendra virus, UniProt O89343 1-604)
T1 construct: also called HNV-G; G of HeVpp; not shown: HA, C-terminal, kept
T1 sequence: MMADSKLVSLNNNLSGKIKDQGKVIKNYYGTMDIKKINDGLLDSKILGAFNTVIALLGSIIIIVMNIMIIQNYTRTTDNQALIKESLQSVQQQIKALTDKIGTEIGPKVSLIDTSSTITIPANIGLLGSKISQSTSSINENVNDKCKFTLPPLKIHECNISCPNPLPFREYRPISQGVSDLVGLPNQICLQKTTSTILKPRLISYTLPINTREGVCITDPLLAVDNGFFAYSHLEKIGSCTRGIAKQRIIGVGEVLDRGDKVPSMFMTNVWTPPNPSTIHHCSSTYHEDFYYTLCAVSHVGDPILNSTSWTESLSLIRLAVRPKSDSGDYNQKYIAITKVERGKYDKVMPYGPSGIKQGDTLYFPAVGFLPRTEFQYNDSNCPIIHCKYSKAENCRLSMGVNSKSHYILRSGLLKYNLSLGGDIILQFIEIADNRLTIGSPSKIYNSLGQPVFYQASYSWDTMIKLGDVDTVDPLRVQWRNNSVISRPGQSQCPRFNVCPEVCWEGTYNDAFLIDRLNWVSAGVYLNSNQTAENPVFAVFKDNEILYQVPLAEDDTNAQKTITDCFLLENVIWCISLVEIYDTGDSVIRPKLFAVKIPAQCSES

T2: Nipah virus attachment glycoprotein (NiV-G), HA-tagged, expressed on the cell surface (Nipah virus, UniProt Q9IH62 1-602)
T2 construct: also called HNV-G; G of NiVpp
T2 sequence: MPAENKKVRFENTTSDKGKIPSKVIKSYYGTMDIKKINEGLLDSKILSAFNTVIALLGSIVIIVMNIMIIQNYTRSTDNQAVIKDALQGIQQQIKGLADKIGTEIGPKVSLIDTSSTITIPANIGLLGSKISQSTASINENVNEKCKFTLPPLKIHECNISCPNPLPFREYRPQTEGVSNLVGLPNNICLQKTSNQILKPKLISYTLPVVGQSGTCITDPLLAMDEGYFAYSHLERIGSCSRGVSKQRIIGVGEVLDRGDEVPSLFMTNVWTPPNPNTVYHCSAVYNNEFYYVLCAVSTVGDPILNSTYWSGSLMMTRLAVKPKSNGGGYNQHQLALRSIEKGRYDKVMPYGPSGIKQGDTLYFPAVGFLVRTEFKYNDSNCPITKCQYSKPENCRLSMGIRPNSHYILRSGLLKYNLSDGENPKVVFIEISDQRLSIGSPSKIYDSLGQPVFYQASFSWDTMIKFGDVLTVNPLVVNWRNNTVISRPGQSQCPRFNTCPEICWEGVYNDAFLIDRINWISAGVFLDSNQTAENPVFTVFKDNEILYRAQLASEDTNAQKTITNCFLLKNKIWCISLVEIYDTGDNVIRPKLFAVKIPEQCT

T3: Ghana virus attachment glycoprotein (GhV-G), HA-tagged, expressed on the cell surface (Ghana virus, UniProt I0E093 1-632)
T3 construct: also called Ghanaian bat henipavirus G; HNV-G; not shown: HA, C-terminal, kept
T3 sequence: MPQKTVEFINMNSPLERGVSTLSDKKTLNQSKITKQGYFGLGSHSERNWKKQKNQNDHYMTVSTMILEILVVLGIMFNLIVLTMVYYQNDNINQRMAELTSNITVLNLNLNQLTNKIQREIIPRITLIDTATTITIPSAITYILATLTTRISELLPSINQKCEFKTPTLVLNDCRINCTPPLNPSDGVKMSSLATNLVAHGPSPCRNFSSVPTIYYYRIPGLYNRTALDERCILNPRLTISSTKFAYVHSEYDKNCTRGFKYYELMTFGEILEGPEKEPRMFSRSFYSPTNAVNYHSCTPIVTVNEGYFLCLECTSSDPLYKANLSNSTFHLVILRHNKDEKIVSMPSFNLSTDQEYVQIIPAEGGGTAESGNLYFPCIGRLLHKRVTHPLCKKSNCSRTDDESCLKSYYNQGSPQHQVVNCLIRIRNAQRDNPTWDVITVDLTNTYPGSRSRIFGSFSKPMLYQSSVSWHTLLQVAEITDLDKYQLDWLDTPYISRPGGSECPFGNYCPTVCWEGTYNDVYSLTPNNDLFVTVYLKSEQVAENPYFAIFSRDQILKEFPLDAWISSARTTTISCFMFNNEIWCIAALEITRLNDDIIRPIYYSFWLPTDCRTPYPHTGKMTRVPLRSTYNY

T4: CedV-G receptor-binding six-bladed β-propeller domain (residues 209–622) (Cedar virus, UniProt J7H333 209-622, high-mannose N-linked glycans (expression in the presence of kifunensine))
T4 sequence: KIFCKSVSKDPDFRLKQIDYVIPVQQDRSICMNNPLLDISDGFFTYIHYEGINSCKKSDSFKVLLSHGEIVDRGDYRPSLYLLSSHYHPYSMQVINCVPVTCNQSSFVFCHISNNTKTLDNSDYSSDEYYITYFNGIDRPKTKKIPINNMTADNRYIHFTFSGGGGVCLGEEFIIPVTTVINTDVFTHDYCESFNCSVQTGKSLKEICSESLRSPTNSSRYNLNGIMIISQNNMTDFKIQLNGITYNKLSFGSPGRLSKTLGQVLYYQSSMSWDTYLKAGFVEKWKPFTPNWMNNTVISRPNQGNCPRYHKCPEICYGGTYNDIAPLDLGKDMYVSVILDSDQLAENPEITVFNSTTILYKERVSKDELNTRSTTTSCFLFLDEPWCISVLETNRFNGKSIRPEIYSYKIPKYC


Columns and labels:
[1] = biological target: Cedar virus attachment glycoprotein (CedV-G), HA-tagged, expressed on the cell surface (Cedar virus); test: flow cytometry on cells
[2] = biological target: T1, Hendra virus attachment glycoprotein …; test: flow cytometry on cells; settings: one partner purified
[3] = biological target: T2, Nipah virus attachment glycoprotein …; test: flow cytometry on cells; settings: one partner purified
[4] = biological target: T3, Ghana virus attachment glycoprotein …; test: flow cytometry on cells; settings: one partner purified
[5] = biological target: T4, CedV-G receptor-binding six-bladed …; test: crystal structure; settings: both partners purified

Molecule	Kd [1]	Kd [2]	Kd [3]	further results
Soluble human ephrin-B1–Fc (from UniProt P98172) (Fc fusion)	4 nM			
Soluble human ephrin-B2–Fc (from UniProt P52799) (Fc fusion)	2.3 nM			
Soluble human ephrin-B3–Fc (Fc fusion, also called sEphrin-B3–Fc; ephrin-B–Fc; source: bought: R&D Systems) LSLEPVYWNSANKRFQAEGGYVLYPQIGDRLDLLCPRARPPGPHSSPNYEFYKLYLVGGAQGRRCEAPPAPNLLLTCDRPDLDLRFTIKFQEYSPNLWGHEFRSHHDYYIIATSDGTREGLESLQGGVCLTRGMKVLLRVGQSPRGGAVPRKPVSEMPMERDRGAAHSLEPGKENLPGDPTSNATSRGAEGPLPPPSMP		5.3 nM	2 nM	
Soluble human ephrin-B2–Fc (Fc fusion, also called sEphrin-B2–Fc; ephrin-B–Fc; source: bought: R&D Systems) IVLEPIYWNSSNSKFLPGQGLVLYPQIGDKLDIICPKVDSKTVGQYEYYKVYMVDKDQADRCTIKKENTPLLNCAKPDQDIKFTIKFQEFSPNLWGLEFQKNKDYYIISTSNGSLEGLDNQEGGVCQTRAMKILMKVGQDASSAGSTRNKDPTRRPELEAGTNGRSSTTSPFVKPNPGSSTDGNSAGHSGNNILGSEVALFA		0.86 nM	1.4 nM	Kd [4]: 0.82 nM
Human ephrin-B1 N-terminal extracellular domain (residues 29–167) (domain or fragment, high-mannose N-linked glycans (expression in the presence of kifunensine), also called extracellular β-barrel domain of human ephrin-B1; ephrin-B1 ectodomain) AKNLEPVSWSSLNPKFLSGKGLVIYPKIGDKLDIICPRAEAGRPYEYYKLYLVRPEQAAACSTVLDPNVLVTCNRPEQEIRFTIKFQEFSPNYMGLEFKKHHDYYITSTSNGSLEGLENREGGVCRTRTMKIIMKVGQD				stoichiometry N [5]: 1
